In patent publication US20130195871A1 (AbbVie / Abbott, published 2013):

How the values were obtained:
Recombinant Human IGF1R [1] = target: T1, Recombinant Human IGF1R (human, UniProt P08069 31-932); assay: SPR (Biacore), N-terminal VD;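 also: capture of antibodies or DVD-Ig proteins on an anti-mouse IgG chip surface, recombinant antigen injected at 10–200 nM in HBS-EP running buffer at 25 °C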
T1 construct: bought reagent

[2] = target: T2, Recombinant Human EGFR ECD (human, UniProt P00533 25-645); assay: SPR (Biacore), C-terminal VD;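 also: surface plasmon resonance with DVD-Ig proteins captured on an anti-IgG chip and recombinant antigen flowed over in HBS-EP buffer, Langmuir global fit, KD taken as koff/kon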
T2 construct: extracellular domain; bought reagent
Protocol: (§1) The BIACORE assay (Biacore, Inc, Piscataway, N.J.) determined the affinity of antibodies or DVD-Ig proteins with kinetic measurements of on-rate and off-rate constants. Binding of antibodies or DVD-Ig proteins to a target antigen (for example, a purified recombinant target antigen) was determined by surface plasmon resonance-based measurements with a Biacore® 1000 or 3000 instrument (Biacore AB, Uppsala. Sweden) using running HBS-EP (10 mM HEPES [pH 7.4], 150 mM NaCl, 3 mM EDTA, and 0.005% surfactant P20) at 25° C. […] For example, approximately 5000 RU of goat anti-mouse IgG, (Fcγ), fragment specific polyclonal antibody (Pierce Biotechnology Inc, Rockford, Ill.) diluted in 10 mM sodium acetate (pH 4.5) was directly immobilized across a CM5 research grade biosensor chip using a standard amine coupling kit according to manufacturer's instructions and procedures at 25 μg/ml. Unreacted moieties on the biosensor surface were blocked with ethanolamine. Modified carboxymethyl dextran surface in flowcell 2 and 4 was used as a reaction surface. Unmodified carboxymethyl dextran without goat anti-mouse IgG in flow cell 1 and 3 was used as the reference surface. For kinetic analysis, rate equations derived from the 1:1 Langmuir binding model were fitted simultaneously to association and dissociation phases of all eight injections (using global fit analysis) with the use of Biaevaluation 4.0.1 software. Purified antibodies or DVD-Ig proteins were diluted in HEPES-buffered saline for capture across goat anti-mouse IgG specific reaction surfaces. Antibodies or DVD-Ig proteins to be captured as a ligand (25 μg/ml) were injected over reaction matrices at a flow rate of 5 μl/minute. The association and dissociation rate constants, kₒₙ (M⁻¹s⁻¹) and koff (s⁻¹) were determined under a continuous flow rate of 25 μl/minute. Rate constants were derived by making kinetic binding measurements at different antigen concentrations ranging from 10-200 nM. The equilibrium dissociation constant (M) of the reaction between antibodies or DVD-Ig proteins and the target antigen was then calculated from the kinetic rate constants by the following formula: KD=koff/kₒₙ. Binding was recorded as a function of time and kinetic rate constants were calculated.

[3] = target: T3, Recombinant Human MSP Receptor ECD-His tag (human, UniProt Q04912 25-957); assay: SPR (Biacore), N-terminal VD;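 also: capture of antibodies or DVD-Ig proteins on an anti-mouse IgG chip surface, recombinant antigen injected at 10–200 nM in HBS-EP running buffer at 25 °C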
T3 construct: extracellular domain; bought reagent; also called RON

[4] = target: T4, Recombinant Human ErbB3/FC Chimera-His tag (human, UniProt P21860 20-643); assay: SPR (Biacore), C-terminal VD;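 also: surface plasmon resonance with DVD-Ig proteins captured on an anti-IgG chip and recombinant antigen flowed over in HBS-EP buffer, Langmuir global fit, KD taken as koff/kon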
T4 construct: bought reagent
Protocol: as §1

[5] = target: T2, Recombinant Human EGFR ECD; assay: SPR (Biacore), N-terminal VD;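 also: capture of antibodies or DVD-Ig proteins on an anti-mouse IgG chip surface, recombinant antigen injected at 10–200 nM in HBS-EP running buffer at 25 °C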
Recombinant Human IGF1R [6] = target: T1, Recombinant Human IGF1R; assay: SPR (Biacore)
Protocol: as §1

[7] = target: T4, Recombinant Human ErbB3/FC Chimera-His …; assay: SPR (Biacore)
Protocol: as §1

B1: DVD2284 (bispecific antibody)
VH: EVQLVQSGAEVKKPGSSVKVSCKASGGTFSSYAISWVRQAPGQGLEWMGGIIPIFGTANYAQKFQGRVTITADKSTSTAYMELSSLRSEDTAVYYCARAPLRFLEWSTQDHYYYYYMDVWGKGTTVTVSSASTKGPQVQLQESGPGLVKPSQTLSLTCTVSGYSISSDFAWNWIRQPPGKGLEWMGYISYSGNTRYQPSLKSRITISRDTSKNQFFLKLNSVTAADTATYYCVTAGRGFPYWGQGTLVTVSS
VL: SSELTQDPAVSVALGQTVRITCQGDSLRSYYATWYQQKPGQAPILVIYGENKRPSGIPDRFSGSSSGNTASLTITGAQAEDEADYYCKSRDGSGQHLVFGGGTKLTVLGQPKAAPDIQMTQSPSSMSVSVGDRVTITCHSSQDINSNIGWLQQKPGKSFKGLIYHGTNLDDGVPSRFSGSGSGTDYTLTISSLQPEDFATYYCVQYAQFPWTFGGGTKLEIK
Recombinant Human IGF1R [1]
  Kd: 7.4 nM
  koff: 0.00019 s⁻¹
  kon: 26000 M⁻¹ s⁻¹
[2]
  Kd: 6.1 nM
  koff: 0.00016 s⁻¹
  kon: 26000 M⁻¹ s⁻¹

B2: DVD2318 (bispecific antibody)
VH: EVQLVQSGGGLVKPGGSLRLSCAASGFTFSSYAMHWVRQAPGKGLEWVAVISYDGSNKYYADSVKGRFTISRDNSKNTLYLQMNSLRAEDTAVYYCARFSGWPNNYYYYGMDVWGQGTTVTVSSASTKGPEVQLVESGGGLVQPGGSLRLSCAASGFTFSIYSMNWVRQAPGKGLEWVSYISSSSSTIYYADSVKGRFTISRDNAKNSLYLQMNSLRDEDTAVYYCARDRGDFDAFDIWGQGTMVTVSS
VL: DVVMTQSPLSLPVTPGEPASISCRSSQSLLHSNGFNYVDWYLQKPGQSPHLLIYFGSYRASGVPDRFSGSGSGTDFTLKISRVEAEDVGVYYCMQALQTPPWTFGQGTKVEIRRTVAAPDIQMTQSPSSLSASVGDRVTITCQASQDITNYLNWYQQKPGKAPKLLIYDASNLETGVPSRFSGSGSGTDFTFTISSLQPEDIATYNCQQCENFPITFGQGTRLEIK
notes: DVD-Ig, outer AB005 / inner AB063
[3]
  Kd: 17 nM
  koff: 0.00092 s⁻¹
  kon: 55000 M⁻¹ s⁻¹
[4]
  binding result: no binding (tested: 10-200 nM)

B3: DVD2320 (bispecific antibody)
VH: EVQLVQSGGGLVKPGGSLRLSCAASGFTFSSYAMHWVRQAPGKGLEWVAVISYDGSNKYYADSVKGRFTISRDNSKNTLYLQMNSLRAEDTAVYYCARFSGWPNNYYYYGMDVWGQGTTVTVSSASTKGPEVQLLESGGGLVQPGGSLRLSCAASGFTFSHYVMAWVRQAPGKGLEWVSSISSSGGWTLYADSVKGRFTISRDNSKNTLYLQMNSLRAEDTAVYYCTRGLKMATIFDYWGQGTLVTVSS
VL: DVVMTQSPLSLPVTPGEPASISCRSSQSLLHSNGFNYVDWYLQKPGQSPHLLIYFGSYRASGVPDRFSGSGSGTDFTLKISRVEAEDVGVYYCMQALQTPPWTFGQGTKVEIRRTVAAPQSALTQPASVSGSPGQSITISCTGTSSDVGSYNVVSWYQQHPGKAPKLIIYEVSQRPSGVSNRFSGSKSGNTASLTISGLQTEDEADYYCCSYAGSSIFVIFGGGTKVTVL
notes: DVD-Ig, outer AB005 / inner AB116
[3]
  Kd: 25 nM
  koff: 0.00094 s⁻¹
  kon: 37000 M⁻¹ s⁻¹
[4]
  binding result: no binding (tested: 10-200 nM)

B4: DVD2348 (bispecific antibody)
VH: QVQLQESGPGLVKPSQTLSLTCTVSGYSISSDFAWNWIRQPPGKGLEWMGYISYSGNTRYQPSLKSRITISRDTSKNQFFLKLNSVTAADTATYYCVTAGRGFPYWGQGTLVTVSSASTKGPEVQLVESGGGLVQPGGSLRLSCAASGFSLTNYGVHWVRQAPGKGLEWLGVGWSGGNTDYNTPFTSRLTINKDNSKNTVYLQMNSLRAEDTAVYYCARALTWYDYEFAYWGQGTLVTVSS
VL: DIQMTQSPSSMSVSVGDRVTITCHSSQDINSNIGWLQQKPGKSFKGLIYHGTNLDDGVPSRFSGSGSGTDYTLTISSLQPEDFATYYCVQYAQFPWTFGGGTKLEIKRTVAAPDILLTQSPGTLSLSPGERATLSCRASQSIYTNIHWYQQKPGQAPRLLIKYASESISGIPDRFSGSGSGTDFTLTISRLEPEDFAVYYCQQNLNWPTTFGQGTKLEIK
[5]
  Kd: 8.5 nM
  koff: 0.00024 s⁻¹
  kon: 28000 M⁻¹ s⁻¹

B5: DVD2349 (bispecific antibody)
VH: EVQLVESGGGLVQPGGSLRLSCAASGFSLTNYGVHWVRQAPGKGLEWLGVGWSGGNTDYNTPFTSRLTINKDNSKNTVYLQMNSLRAEDTAVYYCARALTWYDYEFAYWGQGTLVTVSSASTKGPQVQLQESGPGLVKPSQTLSLTCTVSGYSISSDFAWNWIRQPPGKGLEWMGYISYSGNTRYQPSLKSRITISRDTSKNQFFLKLNSVTAADTATYYCVTAGRGFPYWGQGTLVTVSS
VL: DILLTQSPGTLSLSPGERATLSCRASQSIYTNIHWYQQKPGQAPRLLIKYASESISGIPDRFSGSGSGTDFTLTISRLEPEDFAVYYCQQNLNWPTTFGQGTKLEIKRTVAAPDIQMTQSPSSMSVSVGDRVTITCHSSQDINSNIGWLQQKPGKSFKGLIYHGTNLDDGVPSRFSGSGSGTDYTLTISSLQPEDFATYYCVQYAQFPWTFGGGTKLEIK
[5]
  Kd: 0.76 nM
  koff: 0.00045 s⁻¹
  kon: 580000 M⁻¹ s⁻¹

B6: DVD2218 (bispecific antibody)
VH: EVQLVQSGAEVKKPGSSVKVSCKASGGTFSSYAISWVRQAPGQGLEWMGGIIPIFGTANYAQKFQGRVTITADKSTSTAYMELSSLRSEDTAVYYCARAPLRFLEWSTQDHYYYYYMDVWGKGTTVTVSSASTKGPSVFPLAPEVQLLESGGGLVQPGGSLRLSCTASGFTFSSYAMNWVRQAPGKGLEWVSAISGSGGTTFYADSVKGRFTISRDNSRTTLYLQMNSLRAEDTAVYYCAKDLGWSDSYYYYYGMDVWGQGTTVTVSS
VL: SSELTQDPAVSVALGQTVRITCQGDSLRSYYATWYQQKPGQAPILVIYGENKRPSGIPDRFSGSSSGNTASLTITGAQAEDEADYYCKSRDGSGQHLVFGGGTKLTVLGQPKAAPDIQMTQFPSSLSASVGDRVTITCRASQGIRNDLGWYQQKPGKAPKRLIYAASRLHRGVPSRFSGSGSGTEFTLTISSLQPEDFATYYCLQHNSYPCSFGQGTKLEIK
notes: DVD-Ig, outer AB075 / inner AB011
Recombinant Human IGF1R [6]
  Kd: 5.3 nM
  koff: 0.00013 s⁻¹
  kon: 25000 M⁻¹ s⁻¹

B7: DVD2238 (bispecific antibody)
VH: QVQLQQWGAGLLKPSETLSLTCAVYGGSFSGYYWSWIRQPPGKGLEWIGEINHSGSTNYNPSLKSRVTISVETSKNQFSLKLSSVTAADTAVYYCARDKWTWYFDLWGRGTLVTVSSASTKGPEVQLVESGGGLVQPGGSLRLSCAASGFTFSIYSMNWVRQAPGKGLEWVSYISSSSSTIYYADSVKGRFTISRDNAKNSLYLQMNSLRDEDTAVYYCARDRGDFDAFDIWGQGTMVTVSS
VL: DIEMTQSPDSLAVSLGERATINCRSSQSVLYSSSNRNYLAWYQQNPGQPPKLLIYWASTRESGVPDRFSGSGSGTDFTLTISSLQAEDVAVYYCQQYYSTPRTFGQGTKVEIKRTVAAPDIQMTQSPSSLSASVGDRVTITCQASQDITNYLNWYQQKPGKAPKLLIYDASNLETGVPSRFSGSGSGTDFTFTISSLQPEDIATYNCQQCENFPITFGQGTRLEIK
notes: DVD-Ig, outer AB062 / inner AB063
[7]
  Kd: 5.9 nM
  koff: 0.0003 s⁻¹
  kon: 51000 M⁻¹ s⁻¹

B8: DVD2242 (bispecific antibody)
VH: QVQLQQWGAGLLKPSETLSLTCAVYGGSFSGYYWSWIRQPPGKGLEWIGEINHSGSTNYNPSLKSRVTISVETSKNQFSLKLSSVTAADTAVYYCARDKWTWYFDLWGRGTLVTVSSASTKGPSVFPLAPEVQLVESGGGLVQPGGSLRLSCAASGFTFSIYSMNWVRQAPGKGLEWVSYISSSSSTIYYADSVKGRFTISRDNAKNSLYLQMNSLRDEDTAVYYCARDRGDFDAFDIWGQGTMVTVSS
VL: B7 VL
notes: as for B7
[7]
  Kd: 7.6 nM
  koff: 0.00051 s⁻¹
  kon: 67000 M⁻¹ s⁻¹

B9: DVD2249 (bispecific antibody)
VH: EVQLLESGGGLVQPGGSLRLSCAASGFTFSHYVMAWVRQAPGKGLEWVSSISSSGGWTLYADSVKGRFTISRDNSKNTLYLQMNSLRAEDTAVYYCTRGLKMATIFDYWGQGTLVTVSSASTKGPSVFPLAPQVQLQQWGAGLLKPSETLSLTCAVYGGSFSGYYWSWIRQPPGKGLEWIGEINHSGSTNYNPSLKSRVTISVETSKNQFSLKLSSVTAADTAVYYCARDKWTWYFDLWGRGTLVTVSS
VL: QSALTQPASVSGSPGQSITISCTGTSSDVGSYNVVSWYQQHPGKAPKLIIYEVSQRPSGVSNRFSGSKSGNTASLTISGLQTEDEADYYCCSYAGSSIFVIFGGGTKVTVLGTVAAPDIEMTQSPDSLAVSLGERATINCRSSQSVLYSSSNRNYLAWYQQNPGQPPKLLIYWASTRESGVPDRFSGSGSGTDFTLTISSLQAEDVAVYYCQQYYSTPRTFGQGTKVEIK
notes: DVD-Ig, outer AB116 / inner AB062
[7]
  Kd: 5.6 nM
  koff: 0.00022 s⁻¹
  kon: 39000 M⁻¹ s⁻¹

B10: DVD2268 (bispecific antibody)
VH: EVQLVESGGGLVQPGGSLRLSCAASGFTFTDYTMDWVRQAPGKGLEWVADVNPNSGGSIYNQRFKGRFTLSVDRSKNTLYLQMNSLRAEDTAVYYCARNLGPSFYFDYWGQGTLVTVSSASTKGPQVQLQESGPGLVKPSETLSLTCTVSGGSVSSGDYYWTWIRQSPGKGLEWIGHIYYSGNTNYNPSLKSRLTISIDTSKTQFSLKLSSVTAADTAIYYCVRDRVTGAFDIWGQGTMVTVSS
VL: DIQMTQSPSSLSASVGDRVTITCKASQDVSIGVAWYQQKPGKAPKLLIYSASYRYTGVPSRFSGSGSGTDFTLTISSLQPEDFATYYCQQYYIYPYTFGQGTKVEIKRTVAAPDIQMTQSPSSLSASVGDRVTITCQASQDISNYLNWYQQKPGKAPKLLIYDASNLETGVPSRFSGSGSGTDFTFTISSLQPEDIATYFCQHFDHLPLAFGGGTKVEIK
[2]
  Kd: 18 nM
  koff: 0.00035 s⁻¹
  kon: 19000 M⁻¹ s⁻¹

B11: DVD2274 (bispecific antibody)
VH: EVQLVESGGGLVQPGGSLRLSCAASGFTFTDYTMDWVRQAPGKGLEWVADVNPNSGGSIYNQRFKGRFTLSVDRSKNTLYLQMNSLRAEDTAVYYCARNLGPSFYFDYWGQGTLVTVSSASTKGPQVQLQQWGAGLLKPSETLSLTCAVYGGSFSGYYWSWIRQPPGKGLEWIGEINHSGSTNYNPSLKSRVTISVETSKNQFSLKLSSVTAADTAVYYCARDKWTWYFDLWGRGTLVTVSS
VL: DIQMTQSPSSLSASVGDRVTITCKASQDVSIGVAWYQQKPGKAPKLLIYSASYRYTGVPSRFSGSGSGTDFTLTISSLQPEDFATYYCQQYYIYPYTFGQGTKVEIKRTVAAPDIEMTQSPDSLAVSLGERATINCRSSQSVLYSSSNRNYLAWYQQNPGQPPKLLIYWASTRESGVPDRFSGSGSGTDFTLTISSLQAEDVAVYYCQQYYSTPRTFGQGTKVEIK
notes: DVD-Ig, outer AB080 / inner AB062
[4]
  binding result: no binding (tested: 10-200 nM)
